Experiment [1] has as its target T1, DAPK1 (Rattus norvegicus, UniProt F1LNN8).
T1 construct: decreased the level of endogenous DAPK1 in cultured cortical neurons following NMDA treatment; endogenous in cells; host or cells: primary rat cortical neurons (E18, 14-18 DIV)
Nature of the experiment: DAPK1 knockdown in brain, rat MCAO focal ischemia model (immunoblot, immunohistochemistry). The class given is in vivo. As to conditions: 10 mg/kg i.v. The method, then: (§1) Immunoblotting. Immunoblotting assays were carried out as previously described^36. Briefly, proteins were extracted from neurons using a lysis buffer composed of 150 mM NaCl, 50 mM Tris, pH 7.4, 0.1% SDS, 1% NP-40, 0.5% sodium deoxycholate, 1 mM EDTA, 1 mM Na3VO4, and proteinase inhibitor mixture (Thermo Fisher, PI78442). Samples were separated on 10% SDS-PAGE gels, transferred to polyvinylidene difluoride (PVDF) membrane, and immunoblotted with respective antibodies. Blots were enhanced with chemiluminescence detection reagent kit (Fisher, 32106) and visualized with Bio-Rad imager and Quantity One software. Signal intensities from each band was quantified with Bio-Rad Image Lab software, and the bands were analyzed relative to their controls from the same membrane and experiment.
Middle cerebral arterial occlusion (MCAO). All animal experiments were performed according to protocols approved by the University of British Columbia Committee on Animal Care. Adult naïve male Sprague-Dawley rats (300-350 g, Charles River) were group housed (3-4 animals/cage) in 12 hr:12 hr light-dark cycles and had free access to rat pellet chow and water prior to surgery. Reversible MCAO with suture-insertion method was performed as described previously^37. Briefly, a nylon suture with a blunted tip was entered through the right external carotid artery of anesthetized rats and advanced to the right internal carotid artery until the right MCA was occluded. After 60 min of occlusion, the rat was reanesthetized to facilitate the removal of the occlusion. Body temperature was maintained at between 36.5 and 37.5° C. throughout the surgical procedure with a heating pad. Peptides (10 mg/kg) or vehicle control (saline; 1 ml/kg) was injected via the jugular vein. Rats were then sewn up and allowed to recover until tissue collection.
Immunohistochemistry. Rats were anesthetized and perfused with double-filtered saline and 4% paraformaldehyde (PFA) in PBS. Brains were collected, immersed in 4% PFA before subjected to cryoprotection by 30% sucrose/PBS. After the brains had sunk, they were flash frozen with dry ice before overnight freezing in −80° C. They were then sliced at […] with a cryostat, and stored in 0.1 μM PB (sodium phosphate dibasic and sodium phosphate monobasic). Prior to staining, slices were washed 3×10 min with 0.1 μM PB, permeablized and blocked in 0.1 μM PB with 1% BSA and 0.2% Triton X-100 for 30 min, and stained with anti-DAPK1 (1:100) at 4° C. for 3 days. They were then washed and stained with Alexa 488 (1:1000) at 4° C. overnight before washing and mounting.
(Immunoblotting shows a protein as a band on a membrane.)

Experiment [2] concerns the target T1, DAPK1. Nature of the experiment: Knockdown of native DAPK1 in cultured cortical neurons, NMDA stimulation (immunoblot). As to conditions: for effect on DAPK1 in cytosolic fraction / effect on DAPK1 in mitochondrial fraction / effect on DAPK1 in nuclear fraction: 1 hr prior to and during NMDA; for effect on DAPK1 in cytosolic fraction / effect on DAPK1 in mitochondrial fraction / effect on DAPK1 in nuclear fraction / levels of endogenous DAPK1 reduced by: 2 hours after washout; for reduction of activated DAPK1 on application alone: NR2B-CTS or Pep-1 alone; for levels of endogenous DAPK1 reduced by: with Pep-1 (1:4). In kind it is cell-based. Here is the method:
(§2) Cell culture, transfection and treatments. HEK293 cells and COS7 cells were cultured in DMEM (Sigma, D6429-24X500ML) supplemented with 10% Fetal Bovine Serum (Invitrogen, 12483020). Cells were grown to 80% confluence in 6-well plates before transiently transfected with Lipofectamine 2000 (Invitrogen, 11668019), as according to the manufacturer's protocols. Cells were transfected for either 24 or 48 hours at 37° C. before harvesting for biochemical analyses. For experiments involving TAT or His-TAT peptides, unless otherwise specified, peptides were added 1 hour prior to NMDA insult.
(§3) Primary culture of cortical neurons. Dissociated cultures of rat cortical neurons were prepared from Sprague Dawley rat embryos collected from euthanized mothers 18 days after fertilization as previously described^35. Briefly, hippocampi and cerebral cortices were extracted from embryos and incubated for 30 min in 0.25% trypsin-EDTA. Digested tissues were dissociated by trituration and plated on poly-D-lysine-coated (Sigma, P7280) plates. Plating medium consisted of Neurobasal Media (Invitrogen, 21103-049) supplemented with B27 (Invitrogen, 17504044), glutamic acid (Sigma, G8415) and GlutaMax (Invitrogen, 35050-061). After 2 days, 2/3 of the media was replaced with fresh Neurobasal feeding media consisting of Neurobasal Media, B27 and GlutaMax. Cultures were maintained at 37° C. in a humidified 5% CO2 atmosphere. Mature neurons (14-18 days in vitro (DIV)) were used for experiments.
as §1
Cellular fractionation. Cytoplasm/nuclei fractionation was performed on cultured cortical neurons (6.0*10^6 cells/100 mm dish). Briefly, cells were washed with ice cold PBS and rocked in lysis buffer for 30 min. Cells were then collected and centrifuged to obtain a rough cytoplasmic and nuclear fraction. Supernatant was collected and further centrifuged to obtain purified cytosolic fraction. The original pellet was washed and vortexed to obtain a nuclear lysis. Mitochondrial fractionation was performed as described in the Pierce Mitochondria Isolation Kit for Cultured Cells (Thermo Scientific, 89874) user guide. Purity was assessed by immunoblotting for the presence of LB1 (nucleus only), HSP90 (cytosol only) and VDAC1 (mitochondria only).

Experiment [3] concerns the target T2, α-synuclein (Homo sapiens, UniProt P37840).
T2 construct: expressed in transfected cells; host or cells: HEK293
Put plainly: Knockdown of co-expressed α-synuclein in HEK cells (immunoblot). The class given is cell-based. As to conditions: for effect on α-synuclein levels: co-expression at various ratios, 48 hours. The method, then: Plasmid construction. CTS-GFP was constructed by introducing a BamHI fragment containing the CTS coding sequence into the pEGFP-N2 vector (Clontech #6081-1). The CTS coding sequence was prepared by annealing custom design oligonucleotides (Integrated DNA Technologies). mCTS-GFP was constructed by performing single point mutations to CTS-GFP plasmid. FLAG-βsyn36 was constructed by annealing oligonucleotides and inserting into pcDNA3.0 using HindIII and NotI restriction sites (HindIII, Fermentas, FD0504; NotI Fermentas, FD0594). FLAG-βsyn36-CTS was constructed by PCR using FLAG-βsyn36 as template and adding CTS coding sequence to the reverse primer. FLAG-cDAPK1 was constructed by deleting the autoinhibitory domain from WT-DAPK1 (789-936 bp). NR2Bct (1242-1342aa) was prepared by PCR using NR2B expression vector. NR2Bct-CTS fragment was obtained by inserting NR2Bct fragment into CTS-GFP using EcoRI and BglII restriction sites (EcoRI, Fermentas, FD0274; BglII, Fermentas, FD0084), then PCR, introducing NcoI and EcoRI to the fragment (NcoI, Fermentas, FD0574). His-TAT-NR2Bct-CTS was constructed by cloning NR2Bct-CTS into the pTAT/pTAT-HA plasmids (generous gift of S. Dowdy, Washington University, St. Louis, MO^31) using NcoI and EcoRI restriction sites. His-TAT-NR2Bct was constructed by mutating the first amino acid in CTS sequence into a stop codon. HA-NR2Bct-CTS was constructed by PCR using His-TAT-NR2Bct-CTS as template, with BamHI site in both forward and reverse primers, and then inserted into pcDNA3.0 with BamHI (Fermentas, FERFD0054). HA-NR2Bct-CTSm was constructed by point mutations.
as §2, §1

The next experiment deals with T3, PSD95 (Rattus norvegicus, UniProt P31016).
T3 construct: endogenous in cells; host or cells: primary rat neurons
Put plainly: Degradation of endogenous PSD95 in cultured neurons (immunoblot). In kind it is cell-based. The conditions noted are these: 25 μM bath applied. Here is the method:
as §3, §1

Experiment [4] addresses T4, α-synuclein (Rattus norvegicus, UniProt P37377).
T4 construct: endogenous in cells; host or cells: primary rat neurons
Put plainly: Degradation of endogenous α-synuclein in cultured neurons (immunoblot). In kind it is cell-based. The method, then:
as §3, §1

“Also recorded” adds a separate entry of the source. No end group written: not given here.

T1 sequence (F1LNN8 1-1430): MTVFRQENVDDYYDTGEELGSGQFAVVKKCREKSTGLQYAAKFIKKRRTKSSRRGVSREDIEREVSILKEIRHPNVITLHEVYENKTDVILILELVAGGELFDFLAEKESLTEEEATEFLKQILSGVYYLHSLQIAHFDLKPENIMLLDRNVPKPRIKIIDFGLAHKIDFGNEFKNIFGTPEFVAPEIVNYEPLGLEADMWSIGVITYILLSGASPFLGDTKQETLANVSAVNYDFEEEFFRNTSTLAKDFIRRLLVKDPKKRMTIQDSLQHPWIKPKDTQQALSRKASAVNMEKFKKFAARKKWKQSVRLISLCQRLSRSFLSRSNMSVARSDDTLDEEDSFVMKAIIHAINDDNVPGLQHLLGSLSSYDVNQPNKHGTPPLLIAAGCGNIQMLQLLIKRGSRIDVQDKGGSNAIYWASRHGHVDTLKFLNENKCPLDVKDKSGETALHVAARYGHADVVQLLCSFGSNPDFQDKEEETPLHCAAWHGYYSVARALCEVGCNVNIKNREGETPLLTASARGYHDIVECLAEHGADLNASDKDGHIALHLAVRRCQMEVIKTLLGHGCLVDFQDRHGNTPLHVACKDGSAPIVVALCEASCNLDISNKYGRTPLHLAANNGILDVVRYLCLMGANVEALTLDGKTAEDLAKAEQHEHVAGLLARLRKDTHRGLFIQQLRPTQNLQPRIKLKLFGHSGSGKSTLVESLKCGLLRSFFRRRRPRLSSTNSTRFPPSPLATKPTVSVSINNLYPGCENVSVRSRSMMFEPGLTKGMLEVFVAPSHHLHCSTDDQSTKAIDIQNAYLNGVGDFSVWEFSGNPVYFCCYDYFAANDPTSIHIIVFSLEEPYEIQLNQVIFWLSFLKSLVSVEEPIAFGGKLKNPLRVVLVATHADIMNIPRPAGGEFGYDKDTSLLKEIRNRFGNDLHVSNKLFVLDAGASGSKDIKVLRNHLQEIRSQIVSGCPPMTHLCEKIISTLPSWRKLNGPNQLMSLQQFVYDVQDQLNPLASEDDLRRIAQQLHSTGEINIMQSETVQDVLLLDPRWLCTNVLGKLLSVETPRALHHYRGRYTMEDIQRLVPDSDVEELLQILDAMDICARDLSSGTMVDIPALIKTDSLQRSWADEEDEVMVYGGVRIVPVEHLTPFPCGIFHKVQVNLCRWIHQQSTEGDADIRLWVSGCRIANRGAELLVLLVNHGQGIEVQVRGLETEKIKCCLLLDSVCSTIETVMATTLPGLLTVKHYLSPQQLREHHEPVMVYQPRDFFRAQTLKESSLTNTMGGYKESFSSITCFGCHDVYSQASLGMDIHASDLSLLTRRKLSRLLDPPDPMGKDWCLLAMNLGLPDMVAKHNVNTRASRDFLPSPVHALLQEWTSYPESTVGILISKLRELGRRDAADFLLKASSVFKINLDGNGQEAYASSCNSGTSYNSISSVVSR
T3 sequence (P31016 whole entry): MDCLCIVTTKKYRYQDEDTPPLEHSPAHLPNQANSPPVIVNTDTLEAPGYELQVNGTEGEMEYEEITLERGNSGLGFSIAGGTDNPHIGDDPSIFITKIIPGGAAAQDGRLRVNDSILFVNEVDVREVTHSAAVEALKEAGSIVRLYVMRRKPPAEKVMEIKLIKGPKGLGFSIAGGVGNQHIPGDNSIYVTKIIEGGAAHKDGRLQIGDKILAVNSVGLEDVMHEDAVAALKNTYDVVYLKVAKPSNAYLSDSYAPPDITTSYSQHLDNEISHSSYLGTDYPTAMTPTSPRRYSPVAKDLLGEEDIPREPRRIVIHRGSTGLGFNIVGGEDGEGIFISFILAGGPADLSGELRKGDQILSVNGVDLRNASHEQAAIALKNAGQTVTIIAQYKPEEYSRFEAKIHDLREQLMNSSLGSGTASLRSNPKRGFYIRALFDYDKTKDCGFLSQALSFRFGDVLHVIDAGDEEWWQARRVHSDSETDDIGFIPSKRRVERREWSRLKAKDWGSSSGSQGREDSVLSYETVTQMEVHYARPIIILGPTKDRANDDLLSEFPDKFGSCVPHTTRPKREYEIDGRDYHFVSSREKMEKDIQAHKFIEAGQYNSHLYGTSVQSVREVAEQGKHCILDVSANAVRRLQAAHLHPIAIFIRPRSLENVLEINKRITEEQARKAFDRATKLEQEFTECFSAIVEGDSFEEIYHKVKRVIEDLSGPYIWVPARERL

Take “YGRKKRRQRRRKKNRNKLRRQHSYKFERQKILDQRFFE (Knockdown peptide targeting DAPK1, with TAT protein transduction domain) [TAT-NR2B-CTS]”: the “level of DAPK1 in ischemic side, of that on the contralateral side” value with DAPK1 [1] (1 hour following reperfusion, 60 min MCAO) turned out to be 43.3%. Moreover, the “region specificity of DAPK1 knockdown (immunohistochemistry)” value in the experiment with DAPK1 [1] (brain sections, listed as TAT-NR2BCTM) was “specific to stroke-damaged areas; also recorded: selectively reduced the level of DAPK1”. For the same substance, the “effect on DAPK1 levels in brain tissues (immunoblot)” value with DAPK1 [1] (ischemic vs contralateral side, listed as TAT-NR2BCTM) is reported as “significant reduction in DAPK1 levels only in the ischemic side of the brain; also recorded: specific knockdown of DAPK1 only in tissues collected from the infract side”. Also, the “effect of siRNA-mediated Lamp2a knockdown on DAPK1 knockdown” value in the experiment with DAPK1 [2] (25 μM peptide, NMDA, Lamp2a siRNA 60 pmol 3 days) is reported as “inhibition of TAT-NR2BCTM induced knockdown of DAPK1”. Also, in the experiment with DAPK1 [2] (25 μM), the “effect on DAPK1 in cytosolic fraction” value is listed as “reduced the levels of DAPK1”, the “effect on DAPK1 in mitochondrial fraction” value is reported as “reduced the levels of DAPK1” and the “effect on DAPK1 in nuclear fraction” value was “reduced the levels of DAPK1”. Besides, in the experiment with DAPK1 [2] (25 μM, listed as TAT-NR2BCTM), the “effect on DAPK1 in cytosolic fraction” value is on record as “significantly decreased DAPK1”, the “effect on DAPK1 in mitochondrial fraction” value is “significantly decreased DAPK1” and the “effect on DAPK1 in nuclear fraction” value is “significantly decreased DAPK1”. Also, in the experiment with DAPK1 [2] (NMDA, +3-MA), the “effect of macroautophagy inhibitor on DAPK1 knockdown” value is listed as “did not alter”. Besides, the “effect of lysosomal inhibitor on DAPK1 reduction” value with DAPK1 [2] (synthetic peptide 25 μM, NMDA, +NH4Cl 20 mM) was “rescued; also recorded: prevented”. Also, the “effect on DAPK1 level after NMDA treatment” value with DAPK1 [2] (synthetic peptide 25 μM, prior to and during NMDA) is reported as “significant reduction of DAPK1; also recorded: decreased native DAPK1”.

As for “FLAG-βsyn36: expressed FLAG-tagged β-synuclein 36-45 peptide without CTS ({FLAG}-GVLYVGSKTR; UniProt Q16143 36-45, looked up, fragment) [reference compound]”, in the experiment with α-synuclein [3], the “effect on α-synuclein levels” value is “did not significantly affect”.

In the case of “FLAG-βsyn36-CTS: expressed FLAG-tagged peptide of β-synuclein 36-45 and CTS (untagged: SEQ ID NO:1 GVLYVGSKTRKFERQKILDQRFFE) ({FLAG}-GVLYVGSKTRKFERQKILDQRFFE)”, the “effect of lysosome inhibitor on peptide-induced α-synuclein reduction” value in the experiment with α-synuclein [3] (+NH4Cl 20 mM) was “completely rescued; also recorded: prevented”. Further, the “effect on α-synuclein levels” value was “significantly decreased α-synuclein levels in a dose-dependent manner” with α-synuclein [3] and “constitutively reduced α-synuclein in a dose-dependent manner” with α-synuclein [3] (listed as βsyn36-CTS). The “α-synuclein reduced by, of control α-synuclein levels” value with α-synuclein [3] (co-expression ratio 2:1, 48 hours) is reported as 42.89%±11.34%; with α-synuclein [3] (co-expression ratio 4:1, 48 hours), 46.49%±5.72%; with α-synuclein [3] (co-expression ratio 8:1, 48 hours) it was 52.18%±6.61%; in the experiment with α-synuclein [3] (co-expression ratio peptide:α-synuclein 1:1, 48 hours), 32.40%±7.14%.

With “YGRKKRRQRRRGVLYVGSKTRKFERQKILDQRFFE (Knockdown peptide targeting alpha-synuclein, with TAT protein transduction domain) [TAT-βsyn-CTM, synthetic cell-penetrating α-synuclein targeting peptide]”, the “effect on endogenous PSD95 level” value with PSD95 was “without affecting the non-intended target PSD95; also recorded: without affecting the level of unrelated control proteins PSD-95”. Moreover, the “effect on endogenous α-synuclein level” value with α-synuclein [4] (25 μM bath applied, 4 hours) is recorded as “significantly degraded native α-synuclein; also recorded: specifically decreased the targeted endogenous α-synuclein”. In the experiment with α-synuclein [4] (25 μM, +3-MA 10 mM), the “effect of 3-methyladenine on α-synuclein reduction” value is reported as “not by inhibition of macroautophagy with 3-methyladenine; also recorded: significantly decreased native α-synuclein in the presence of 3-MA”. Also, in the experiment with α-synuclein [4] (25 μM, +NH4Cl 20 mM), the “effect of NH4Cl on α-synuclein reduction” value is reported as “rescued; also recorded: prevented”.

Consider “KETWWETWWTEWSQPKKKRKV [Pep-1, short amphipathic intracellular delivering carrier peptide, reference compound]”, for which, in the experiment with DAPK1 [2] (NMDA), the “reduction of activated DAPK1 on application alone” value is on record as “not produced”.

Consider “KKNRNKLRRQHSYKFERQKILDQRFFE (Knockdown peptide targeting DAPK1, without TAT protein transduction domain) [NR2B-CTS, synthetic DAPK1 degradation targeting peptide without TAT, delivered with Pep-1]”, for which the “levels of endogenous DAPK1 reduced by” value worked out at 33.60±14.48% with DAPK1 [2] (10 μM, NMDA); 43.65±2.05% with DAPK1 [2] (25 μM, NMDA); 63.88±6.18% in the experiment with DAPK1 [2] (50 μM, NMDA). For the same substance, the “reduction of activated DAPK1 on application alone” value in the experiment with DAPK1 [2] (NMDA) is “not produced”. In the experiment with DAPK1 [2] (delivered by Pep-1, no NMDA), the “effect on DAPK1 levels in non-NMDA treated neurons” value is “did not affect DAPK1 levels”. The DAPK1 decrease in the experiment with DAPK1 [2] (with Pep-1, 1 hour following NMDA and peptide washout) amounted to 58.27±5.48%. Besides, the “DAPK1 decrease (maximum level)” value in the experiment with DAPK1 [2] (with Pep-1, 2 hours after washout) amounted to 78.79±1.15%. In addition, the “effect of NH4Cl on DAPK1 reduction” value with DAPK1 [2] (with Pep-1, NMDA, +NH4Cl 20 mM) is given as “fully rescued”.
